Test results taken from patent US8273357B2, “Antigen-carbohydrate conjugates” (Massachusetts Institute of Technology, priority 2004, dated 2012).
“Also recorded” adds a separate entry of the source.

B1: (OVA)-3-1: ovalbumin modified via SMCC with nonasaccharide 3-1, average of three saccharides per OVA (conjugate)
chain: GSIGAASMEFCFDVFKELKVHHANENIFYCPIAIMSALAMVYLGAKDSTRTQINKVVRFDKLPGFGDSIEAQCGTSVNVHSSLRDILNQITKPNDVYSFSLASRLYAEERYPILPEYLQCVKELYRGGLEPINFQTAADQARELINSWVESQTNGIIRNVLQPSSVDSQTAMVLVNAIVFKGLWEKAFKDEDTQAMPFRVTEQESKPVQMMYQIGLFRVASMASEKMKILELPFASGTMSMLVLLPDEVSGLEQLESIINFEKLTEWTSSNVMEERKIKVYLPRMKMEEKYNLTSVLMAMGITDVFSSSANLSGISSAESLKISQAVHAAHAEINEAGREVVGSAEAGVDAASVSEEFRADHPFLFCIKHIATNAVLFFGRCVSP
B2: ovalbumin (protein, UniProt P01012 2-386, looked up)
Ovalbumin: GSIGAASMEFCFDVFKELKVHHANENIFYCPIAIMSALAMVYLGAKDSTRTQINKVVRFDKLPGFGDSIEAQCGTSVNVHSSLRDILNQITKPNDVYSFSLASRLYAEERYPILPEYLQCVKELYRGGLEPINFQTAADQARELINSWVESQTNGIIRNVLQPSSVDSQTAMVLVNAIVFKGLWEKAFKDEDTQAMPFRVTEQESKPVQMMYQIGLFRVASMASEKMKILELPFASGTMSMLVLLPDEVSGLEQLESIINFEKLTEWTSSNVMEERKIKVYLPRMKMEEKYNLTSVLMAMGITDVFSSSANLSGISSAESLKISQAVHAAHAEINEAGREVVGSAEAGVDAASVSEEFRADHPFLFCIKHIATNAVLFFGRCVSP
notes: model antigen, unmodified

Key:
OTII T cells = assay: In vitro restimulation with OVA peptide of T cells from immunized, rechallenged mice; type: in vivo, mouse; settings: OVA peptide 100 μg mL^−1, 24 h
Experimental: FIGS. 8A and 8B are a series of dot plots (FIG. 8A) and a graph (FIG. 8B) showing that the oligosaccharide-mediated targeting of steady state dendritic cells leads to T cell tolerance. […] 2×10^7 OTII splenocytes were adoptively transferred into B6.Ly5.2/Cr recipients and then immunized by subcutaneous injection with PBS, OVA (200 ng), (OVA)-3-1 (200 ng), (OVA)-3-1 (200 ng)+mBSA (50 μg) or OVA peptide (100 μg) in Incomplete Freund's Adjuvant. At 8 days after these initial immunizations, mice received an antigenic rechallenge of OVA peptide (100 μg) in Complete Freund's Adjuvant. On day ten mice were sacrificed and cells were isolated from the draining lymph node, total T cells were purified by negative selection and the number of OTII T cells were counted by FACS as described for FIG. 6. […]
For T cell proliferation assays in adoptive transfer experiments, inguinal lymph nodes from each experimental group (3 mice/group) were pooled and dissociated with collagenase/EDTA as described above. […] Response to OVA peptide was determined by subtracting background proliferation (no peptide) from specific, peptide-induced proliferation. […] The proliferation index was calculated as the ratio of the response to OVA peptide in an experimental group to the response to OVA peptide in the PBS group.

[1] = tested on: CD8α+ and CD8α− dendritic cells; assay: Antigen presentation by sorted CD8α+ and CD8α− dendritic cell subsets to OTII T cells; type: cell-based, mouse; settings: for presentation to OTII T cells by individual dendritic cell subsets: CD8α+ and CD8α− subsets
Experimental: FIG. 5 is a graph showing that both dendritic cell subsets, i.e., cells that are CD8α+ and CD8α^−, can present (OVA)-301. CD11c+ dendritic cells were stained with antibody against CD8α and I-A^b MHC class H molecules and sorted into their respective CD8α+ and CD8α^− populations. 2×10^4 cells of each subtype were incubated with 1×10^5 purified OTII T cells with graded doses of OVA or (OVA)-3-1 for eighty-four hours with [^3H]thymidine (1 μCi) added for the last twelve hours. All data points were performed in triplicate.
In the mouse, there are three subsets of dendritic cells, which are defined by their expression of the cellular antigens CD8 and CD4, namely CD8 α^+CD4^−, CD8α^−CD4^+, and CD8αCD4^14,15. Many functional differences among these subsets have been described and it has been argued that the CD8α^+ subset may be solely responsible for maintaining peripheral tolerance while the CD8α^− subset induces immunity to captured antigen^14 To determine if the high-mannose receptor was restricted to a particular subset, a fluorescence cell sorter was used to separate dendritic cells into their respective CD8α^+ and CD8α^− subsets. Each subset was then tested for its ability to present OVA and (OVA)-3-1 to OTII T cells (FIG. 5). […] Thus, both dendritic cell subsets expressed a receptor capable of binding nonasaccharide 3-1 and mediating uptake of antigens modified with this oligosaccharide.
To obtain sufficient numbers of dendritic cells for antigen presentation and cytokine analysis, C57BL/6 mice were injected with a Flt3-ligand secreting tumor cell line to promote the expansion of dendritic cells. Fourteen days after this administration the mice were sacrificed and the spleens were isolated. Dendritic cells were purified from the spleens by positive selection with anti-CD11c microbeads as described above and stained with FITC-conjugated anti-1-A^b and cychrome-conjugated anti-CD8α. Cells were then sorted on a fluorescence-activated cell sorter, a MoFlo, (Dakocytomaton, Glostrup Denmark) into CD8α^+I-A^b+ and CD8α^−I-A^b+ populations. The purity of each subset was 80% with approximately 6% cross-contamination. Dendritic cells from each subset were used in antigen proliferation assays as described above (section 3.5.5).

IFN-γ = IFN-γ ELISA during in vitro peptide restimulation of T cells from immunized mice; type: in vivo, mouse; settings: 24 h; lower limit of detection approximately 0.3 ng mL^−1
Experimental: FIGS. 8A and 8B are a series of dot plots (FIG. 8A) and a graph (FIG. 8B) showing that the oligosaccharide-mediated targeting of steady state dendritic cells leads to T cell tolerance. […] 2×10^7 OTII splenocytes were adoptively transferred into B6.Ly5.2/Cr recipients and then immunized by subcutaneous injection with PBS, OVA (200 ng), (OVA)-3-1 (200 ng), (OVA)-3-1 (200 ng)+mBSA (50 μg) or OVA peptide (100 μg) in Incomplete Freund's Adjuvant. At 8 days after these initial immunizations, mice received an antigenic rechallenge of OVA peptide (100 μg) in Complete Freund's Adjuvant. On day ten mice were sacrificed and cells were isolated from the draining lymph node, total T cells were purified by negative selection and the number of OTII T cells were counted by FACS as described for FIG. 6. […] Purified T cells from each experimental group were seeded at 3×10^5 cells/well with purified […] dendritic cells (9×10^4/well) and were incubated for twenty-four hours±OVA peptide (100 μg mL^−1) with [^3H]thymidine (1 μCi) added for the last ten hours. […]
75-150 μL aliquots of supernatant were sampled from antigen presentation assays at 24, 48, and 72 hours. […] 25 μL of each supernatant were diluted 1:1 with PBS/1% BSA and analyzed in triplicate for IFN-γ, IL-10, and IL-4 using DuoSet ELISA reagents from R&D Systems. […]

Row | Molecule | ability of T cells from immunized mice to respond to dendritic cell-presented OVA peptide in vitro (OTII T cells) | presentation to OTII T cells by individual dendritic cell subsets [1] | presentation to OTII T cells by individual dendritic cell subsets ([1]; listed as (OVA)-301) | efficiency of presentation by CD8α+ subset relative to CD8α− subset ([1]; sorted subsets, OTII T cells) | IFN-γ produced during peptide stimulation in vitro (IFN-γ)
1 | B1 | significantly less responsive; also recorded: refractory to antigenic stimulation in vitro | presented by each subset | can present | approximately 2 fold | no detectable IFN-γ
2 | B2 | strongly activated | only weakly presented |  |  | produced IFN-γ
